Test results as given in the supplement of paper PMC12636428.

Tested on: Saccharomyces cerevisiae
Test: transcriptional activation domain activity (GFP:mCherry ratio, weighted mean of sorted bins, harmonized to initial dataset scale) (arbitrary fluorescence ratio units); higher = stronger transcriptional activation
Details: beta-estradiol 1 µM; induction time 4 h
Description: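 53-aa protein tiles (fungal proteins plus yeast TF control tiles) fused C-terminally to a DBD-estrogen-binding domain-mCherry synthetic TF, integrated in S. cerevisiae (URA3 locus) with a GFP reporter. Cells were induced with 1 uM beta-estradiol for 4 h at 30 C, FACS-sorted into 8 bins by GFP:mCherry ratio and barcodes sequenced. Activity is the read-weighted mean bin fluorescence (GFP:mCherry), averaged over barcodes (median 12); tiles under 50 reads were discarded. New active-learning values were harmonized by linear fit onto the scale of the initial (Hummel et al.) dataset. The assay saturates at low and high signal.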

AVRLLSTKKISMSQANIGQTYFAHYCLSLLRLARYALSTMIKMFGPVYGWWLF
transcriptional activation domain activity: 64300

AVSAGLMSGFGSSSDEDEDEEQENEEDVNNEVSYPLHKLSHRFFFGHNAPSGA
transcriptional activation domain activity: 15700

AVTCMTIFATISLKLNQQDMLTPWYTSLPLHRRLLHQWFCGLLHWMGFYLVWS
transcriptional activation domain activity: 65900

AVVILGDLHPRGYNSNWFLMYYTGWLTFIFFITLLWALANLAWLRYTARVLPC
transcriptional activation domain activity: 29300

AVVVTVWKLCDHPVMAWILGLIRCLTKKLKEVRQCKEELKQFFRDVVCKIEIA
transcriptional activation domain activity: 39000

AVWGTGYGKYFVLVLCLFAGINITSCWVLIKYLGGLTWCTLFFKNRLLWINFV
transcriptional activation domain activity: 60400

AVWPLSERSKFHNIISVDLSDLGDVINPDVGTITELVCFDESIADLYPVGLDS
transcriptional activation domain activity: 122000

AWAVQTKVYLNYLWHTTNKFTTGFKVIYIQCHPDFVTWEQMKIMAMFLCCLCF
transcriptional activation domain activity: 55800

AWCHLSVVGRASNLVVYLLIRARKLQLDLGLGFYQRSLLMLCEKLIVVDIFSL
transcriptional activation domain activity: 63400

AWKRVTALLGPVVRLKADIVEIFERVMIIYFRSLDLEEKPITAGILGTVNKWN
transcriptional activation domain activity: 48300

AWLIHCILLFPWSSKLFPSWCGHMTSCYEFYVLGAISVCNCAVVFVYWLILLV
transcriptional activation domain activity: 56600

AWPLHLTLGKIPKSIRYQDYHRACRVLAYFPIIHVKGGIIRPAWWWSHCKKLI
transcriptional activation domain activity: 36300

AWVLSLFLSFFGIGLVLGSGIWDLGFGLVFLFLVFSFFWGWFWVVLCVVYVDR
transcriptional activation domain activity: 33800

AWWIGLSGGLYGCITLMPIFFHDSPYYAPLSFTAWFLYMESFWYLPFLDLCYL
transcriptional activation domain activity: 46000

AYANDKESTREKFILVVWIGPQCKVMRKAKVSVHAADVKTTLRVYSIEVAARE
transcriptional activation domain activity: 35700

AYAVMVVIQSLFLCLFGMAFQFSFFLNANFVVVYSIFVLYGWAMICFALFLST
transcriptional activation domain activity: 46800

AYFAQDSEEELMSPTQSITSNLASEENTRCTTKDLMGTVSIFMLPMVEECYNI
transcriptional activation domain activity: 75100

AYHSAKHVIVPNDGKLLAMTDPLISDLDEDGQKGLLIISRGTALLLLGVYIAY
transcriptional activation domain activity: 47300

AYLTFCIYLCFWSYLNLRLAGLFFFSLFIILFPPRVSWLHYFSFLFYSGVFCF
transcriptional activation domain activity: 51000

AYMREMCVCLRDLFEALGCNKLTTLRIMLYNDAYCLGQSPTFRIRYLMSQLEP
transcriptional activation domain activity: 49600

AYNALIFALVVCICTFGCCAYIFVSSLFIHKLYNKFIILAAHIWMIIFWLVDL
transcriptional activation domain activity: 62400

AYNALQILSWTCRLICSSVLSLHWFRPGHESILQLYDSITFFLTMFFIELLSH
transcriptional activation domain activity: 49100

AYNLILIIRWCLFIITIYYCYTLVLYHHYKVNFKQLIRKSMSPIKNNNLIHQF
transcriptional activation domain activity: 65300

AYPTAAAVAPSTPKGKQRDVADELADLSVSKSSGSASKAKAKGSSPAAAKAAA
transcriptional activation domain activity: 14900

AYSITLPICSSPILLLFIQSLLFLLPLFSITLSPSFSFILYLLHLFSLLLLCL
transcriptional activation domain activity: 30200

AYTATNVGIPFNRAMDHLHRMMSRFEYCIFEGTSLPVFGIIGLQVRCQWLGCS
transcriptional activation domain activity: 73700

AYTDEDDAHQIRRKQLSMVLRGMPSVFDSLTHARVYLELIFRQMEHYLYVAAT
transcriptional activation domain activity: 42200

AYTSTMFLQWHNHMVEFYHLRCMLGATLRNLDNENPGASLPVQLWLLFAWHML
transcriptional activation domain activity: 42100

AYWVVLGIWWFIFQQHCPGPPLPMGKNYLTIGWKQIWLAVKQYKHMPYTFIYL
transcriptional activation domain activity: 53300

CASPIFRLKYLYKIPSGIAAMAHIFSVVNHFTFFELMWLMERWNFRRALLGLM
transcriptional activation domain activity: 62900

CCIRNSLFQEDSKCIKQQPDLLSEQTAPFPILEDQCPALNLDRSNNDLLLQNN
transcriptional activation domain activity: 35300

CCLLRTLGRFLLFIIFSPSLSTSSFQTLPLTLPFYLLSIFTKKPLYPIPFLCI
transcriptional activation domain activity: 44800

CCMVWGRRWLIVLFPIFCLITVFVFKILEVFTGAFSWVENVRFLVVYLSCILA
transcriptional activation domain activity: 34800

CCQSNSLLNMENYLVPYDNFREVVDSRLQEESHSNGVDNSNSNSDNKDSIRPK
transcriptional activation domain activity: 24200

CDAGILLCLVCYLSSKLIYLFLVEKVFIIRGNRQRWTDKLFLFNMFGMLLPYC
transcriptional activation domain activity: 51600

CDAPKLGLSGATLFEMIRFLDLYQGDWDSFLSQILVHAQIIRVLREALLILTV
transcriptional activation domain activity: 65300

CDEHINMKEKEPEKDETPAADGAAKEEEKKPETKPDDTFQAFVVIAVALISMG
transcriptional activation domain activity: 27600

CDLQQSHYTPWRILFGLREPLVSAMNYLITYIPRGESSVIIGIRTFVLFSLCF
transcriptional activation domain activity: 37900

CDNIYLQQDQCGYVLEHCMDATPGLFNYIQLYYCSSFRPLVFIFMCGWLLFLF
transcriptional activation domain activity: 54900

CDSGNEFDGRIGLRVSSIFVILIGSLIGAMLPVVLARSSKMRVPKLAFFVAKY
transcriptional activation domain activity: 36900

CDSVYLHQDQCAHVLEYCMDATPGLINYIQLYFCSPIKPFIFLIMCCWLLFLF
transcriptional activation domain activity: 51500

CDTGILLCLVCYLSSKVLLYFFLVEKVHVIRGNNDSRWKDKLFVFNCFGMMLP
transcriptional activation domain activity: 38100

CDTVAHSAGRRERGRKQAGKRNDKERREGEERGKTGKTKRRGVARAGTGASAS
transcriptional activation domain activity: 14800

CEMQFAKDTVVRRYCLLLECLELLPVSAIKAVTRMLHRIVVKCGCVAMFFKMS
transcriptional activation domain activity: 70400

CEPLRKATRGLVTTVVNGNDVVPSLSIGVVRDFHSVALSFKEDTGGVLGEVRK
transcriptional activation domain activity: 39100

CFALVVAFGISRNTLLVKAFRCIQYCLSKMSYCLATRLQCCPEYSCYIHQPGD
transcriptional activation domain activity: 75300

CFAMVQQIFAKLLIMFEPRLDIPLLKFYTLLYRSVYYAICRRQQLYQEDMIAA
transcriptional activation domain activity: 57700

CFCCNYFKVPLFCCSLSLYQTIRFFLIFLLLLLQRPSFSVFLVNSILLRFFPL
transcriptional activation domain activity: 37600

CFFLFYIIHLPLLFIHITKSMYVLIVSRFVSSFPVSVGWAVGRAHGFGPLFAQ
transcriptional activation domain activity: 51900

CFFYSAIWLTTIPHCTGRCVRPCGVHLINLGHVCRNHSRYWGYCICNNKMTPY
transcriptional activation domain activity: 57600

CFICYGYIVIRWWIEADRDPELIHQALVMIWYPIAYFVEIFPQSMVRVLNMHA
transcriptional activation domain activity: 52600

CFILLHLVLSFFALSCLYCLVLLLLPLPLILLFLLSSPWKFVPVHLQRHFVVV
transcriptional activation domain activity: 68600

CFKHIGLYWAERGITLGRLEQLVGCHSLFSALERQASLRAWSILGMLLTIVWF
transcriptional activation domain activity: 61400

CFKLSLVALWPFGKSIDWNLRSAGCLSTVFNVIWLVLLGWHLCLIHLGLMLLF
transcriptional activation domain activity: 43600

CFLVLSCRWLLVLPALTYLATSVLYTYDITITVTGQTRSVRLPSSIACILNVA
transcriptional activation domain activity: 42200

CFSILFSRFAGPSIYLGMRILIMLLYVTLTLWTPWLFYFWVSILSLCIAPFLF
transcriptional activation domain activity: 44300

CFSKCLDGHTLLLCTLYFLIINQKLLYCYVIVFFFWIWLSISLSYICVSELYY
transcriptional activation domain activity: 57100

CFSLCFSLCFPFAFPLLFPFFPLLFPLLFPLLSLCFSLCFSLLPFPLELPFLF
transcriptional activation domain activity: 37100

CFYLTTRFWDYKRKSYHYFLFGLCYFVNIMDLFYIWFFRDNVYYFIMCWCLTL
transcriptional activation domain activity: 57200

CGFVVFVIRWSTVSVGYLGIIRWLVICKKLQFSEIKRIMRVYFCHMALFIFTL
transcriptional activation domain activity: 40900

CGLCALVYHSLRFQLQSNMDVLLFRYNGSYKMVVVAATTKHLLLEDIKIKLLC
transcriptional activation domain activity: 45700

CGQILLTICLLPLLFFFFFFFFWSKGVSPFLSHLSSVLLIMLGRIMQIVVGLW
transcriptional activation domain activity: 38300

CGRCRCCRGLLPLYPHHPFSFFVLLCIPGMFLLLLVHWMFLSFVSGFAILVPE
transcriptional activation domain activity: 79500

CGSQSPALLYPYYQIDTIVPCIRDLESYYKSAGFPTTTLIWPLFLHLMILFVV
transcriptional activation domain activity: 75400

CHLLLVCLFYDFLTIEYYLYGSLLLLLLHDCFLLKICEFIVRPTCLPGLFHAK
transcriptional activation domain activity: 60500

CHLTVIYFMSVPVIYLRLARLLFLEILTAGRIAIEGNGLGQGSLLAKTLRGRQ
transcriptional activation domain activity: 66500

CHVLRMYTPYWILFPNDLIQLLKVIPALRCLHILSKGIRIIRWKPLPYLLWED
transcriptional activation domain activity: 51800

CIFFFSYYGIRILQRGVLLLFILLFYISLCDPLLFPPLFFFSSSFLGRAFFLY
transcriptional activation domain activity: 89800

CIGAMVLIVLWAGGVCILVLVMCIPLEGVWDRRVNAKCIPHMTVMWYFNGVFN
transcriptional activation domain activity: 62900

CIIFPHPFFSYSFFSFSPLFFFFFPSFLSFLSFLPSFLFFFSIVTPSSSSSTY
transcriptional activation domain activity: 55100

CIIIVFIIRFLVLDLIGMFVCIYWVSFLFYFILFYFISRMVLHRVFFFFSFLI
transcriptional activation domain activity: 49700
